The values below are quoted from earlier work in PMC4303274.

Like-named read-outs stand apart in the source and are kept apart here.

Data set [1] addresses CaMKII (Homo sapiens) (UniProt Q9UQM7).
For data set [2], the target named is neurogranin (Homo sapiens) (UniProt Q92686).
Data set [3] has as its target CaMKII (Homo sapiens) (UniProt Q9UQM7). The source holds these as a separate data set.

Chain of CaMKII (Homo sapiens) (Q9UQM7 whole entry): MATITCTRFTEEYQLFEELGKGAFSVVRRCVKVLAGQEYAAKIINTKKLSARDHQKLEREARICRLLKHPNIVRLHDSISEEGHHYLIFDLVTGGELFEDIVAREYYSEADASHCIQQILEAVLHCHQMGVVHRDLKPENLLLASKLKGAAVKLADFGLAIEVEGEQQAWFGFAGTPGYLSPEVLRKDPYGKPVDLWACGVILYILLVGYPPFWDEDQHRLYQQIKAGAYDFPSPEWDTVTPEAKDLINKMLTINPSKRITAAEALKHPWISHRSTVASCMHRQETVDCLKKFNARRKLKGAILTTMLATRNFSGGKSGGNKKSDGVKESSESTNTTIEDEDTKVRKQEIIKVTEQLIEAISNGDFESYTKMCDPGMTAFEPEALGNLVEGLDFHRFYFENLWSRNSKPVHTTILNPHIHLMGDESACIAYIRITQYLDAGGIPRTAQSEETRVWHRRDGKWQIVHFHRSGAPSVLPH
Chain of neurogranin (Homo sapiens) (Q92686 whole entry): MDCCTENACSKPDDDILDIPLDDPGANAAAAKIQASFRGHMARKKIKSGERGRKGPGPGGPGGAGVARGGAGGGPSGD

For “calmodulin C-lobe fragment TR2C (T state) TR2C (from UniProt P0DP23)”, in data set [1], the Kd was 88000 nM. For “calmodulin C-lobe fragment TR2C (R state) TR2C (from UniProt P0DP23)”, the Kd is 1050 nM in data set [2] and 950 nM in data set [3].
